Data published in patent publication US20190127480A1 (Regeneron, published 2019).

B1: H1H7211P (monovalent 1-arm) (antibody, human IgG1, V domains shown)
VH: EVQLVESGGGLVHPGRSLRLSCTASGFKFADYTMHWVRQAPGKGLEWVSDISWNSGSKGYADSVKGRFTISRDNDKNSLYLQMNSLRGEDTALYYCAKDGSGYGRFHFYAIDVWGQGTTVTVSS
VL: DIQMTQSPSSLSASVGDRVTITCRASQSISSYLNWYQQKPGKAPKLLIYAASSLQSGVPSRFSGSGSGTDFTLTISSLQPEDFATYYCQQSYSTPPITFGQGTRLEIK
notes: Monovalent 1-arm: second Fab removed, only the Fc portion (CH2-CH3) expressed; human IgG1 Fc; tied by numerical identifier; also called H1H7211B
B2: H1H7226P (monovalent 1-arm) (antibody, human IgG1, V domains shown)
VH: EVQLVQSGGGLVQPGRSLRLSCAASGFTFSDYTMHWVRQGPGKGLEWVSDISWNSGSKGYTDSVKGRFTISRDNAKKSLYLQMNSLRAEDTALYYCVKDGSGYGKYHFYAMDVWGQGTLVTVSS
VL: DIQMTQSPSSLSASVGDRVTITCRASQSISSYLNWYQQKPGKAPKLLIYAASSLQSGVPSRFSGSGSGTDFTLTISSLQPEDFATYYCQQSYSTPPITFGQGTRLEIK
notes: Monovalent 1-arm: second Fab removed, only the Fc portion (CH2-CH3) expressed; human IgG1 Fc; tied by numerical identifier; also called H1H7226B
B3: H1H7233P (monovalent 1-arm) (antibody, human IgG1, V domains shown)
VH: EVQLVESGGGLVQPGGSLRLSCEASGFTFADYTLHWVRQAPGKGLEWVSDISWNSGTRGYADSVRGRFTISRDNAKKSLYLQMNSLRSEDTALYYCVKDGSGYGRYNFYAMDVWGQGTTVTVSS
VL: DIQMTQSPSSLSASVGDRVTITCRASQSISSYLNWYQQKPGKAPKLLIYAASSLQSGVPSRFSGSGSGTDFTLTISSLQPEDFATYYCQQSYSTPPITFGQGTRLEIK
notes: Monovalent 1-arm: second Fab removed, only the Fc portion (CH2-CH3) expressed; human IgG1 Fc; tied by numerical identifier; also called H1H7233B
B4: H1H3465P (antibody, human IgG1, V domains shown)
VH: QVQLVESGGGVVQPGRSLRLSCAASGFTFITYGMHWVRQAPGKGLEWVAIIYYDESNKYYADSVKGRFTISRDISKNTLYLQMNGLRAEDTAVYYCARAPRVAVEEDYSYYYGMDVWGQGTTVTVSS
VL: DIQMTQSPSSLSASVGDRVTITCRASQGIRNDLGWYQQKPGRAPKRLIYGASNLQSGVPSRFSGSGSGTEFTLTISSLQPEDFATYYCLQHNSHPYTFGQGTKLEIK
notes: human IgG1; also called PSMA-VH-3465 (its HCVR)
B5: H1H11797P2 (antibody, human IgG1, V domains shown)
VH: QVQLVESGGGVVQPGRSLRLSCAASGFSFSGYGMHWVRQAPGKGLEWVAVTWYDGSNKYYADSVKGRFTISRDNSKNTLYLQMNSLRAEDTAVYYCARDGNWGGPYWYFDLWGRGTLVTVSS
VL: DIQMTQSPSSLSASVGDSVTITCRASQSINNYLNWYQQKPGKAPKLLIYTASSLLSGVPSRFSGSGSGTDFTLTISGLHPEDFATYFCQQSFSTPPITFGQGTRLDIK
notes: human IgG1
B6: H1H11800P2 (antibody, human IgG1, V domains shown)
VH: QVQLVESGGGVVQPGRSLRLSCAASGFTFSSYGMHWVRQAPGKGLEWVAVISYAGNNKYYVDSVKGRFTISRDNSKNTLYLQMNSLRAEDTAVYYCAKDPYYDFLTGSDYFDYWGQGTLVTVSS
VL: B5 VL
notes: human IgG1
B7: H1H11792P2 (antibody, human IgG1, V domains shown)
VH: QVQLVESGGGVVQPGRSLRLSCAASGFTFSSYGMHWVRQPPGKGLEWVAIMSYDGSNKYYADSVKGRFTISRDNSKNTLYLQMNSLRVEDTAVYYCAKDQYYDFLTFDYTLDYWGQGTLVTVSS
VL: B5 VL
notes: human IgG1
B8: H1H11836P2 (antibody, human IgG1, V domains shown)
VH: QVQLVESGGGVVQPGRSLRLSCAASGFTFRSYGMHWVRQAPGKGLEWVAFISYDESNKHQADSVKGRFTISRDNSKNTLYLQMNSLRAEDTAVYFCAKDQYYDFLTAYDTLDYWGQGTLVTVSS
VL: B5 VL
notes: human IgG1
B9: H1H11803P2 (antibody, human IgG1, V domains shown)
VH: QVQLVESGGGVVQPGRSLRLSCAASGFTFSSYGMHWVRQAPGKGLEWVAVIWYDGNNKYYADSVKGRFTISRDNSKKTLYLQMTSLRAEDTAVYYCARDQYYDILTADNTLDYWGQGTLVTVSS
VL: B5 VL
notes: human IgG1

How the values were obtained:
[1] = target: T1, Soluble heterodimeric CD3 protein (hCD3-epsilon/hCD3-delta) with either a human Fc tag (hFcΔAdp/hFc) or a … (human, UniProt P07766 23-126; P04234 22-105); test: SPR Biacore 25C antigen-capture, 1-arm
T1 construct: also called hCD3ε/δ; not shown: Fc tag: human (hFcΔAdp/hFc)
Procedure: In the antigen-capture format, heterodimeric CD3 protein was captured using a rabbit anti-mouse Fc or mouse anti-human Fc and the respective antibodies were injected over the captured antigen.
(§1) Kinetic association (kₐ) and dissociation (kd) rate constants were determined by processing and fitting the data to a 1:1 binding model using Scrubber 2.0 curve fitting software. Binding dissociation equilibrium constants (KD) and dissociative half-lives (t₁₁₂) were calculated from the kinetic rate constants as: KD (M)=kd/kₐ; and t_{1/2} (min)=(ln 2/(60*kd). NT=not tested; NB=no binding observed.

[2] = target: T1, Soluble heterodimeric CD3 protein …; test: SPR Biacore 25C antibody-capture, 1-arm
Procedure: Soluble heterodimeric CD3 protein (hCD3-epsilon/hCD3-delta; SEQ ID NOs:1652/1653) with either a human Fc tag (hFcΔAdp/hFc; SEQ ID NOs:1683/1684) or a mouse Fc tag (mFcΔAdp/mFc; SEQ ID NOs:1685/1686) was injected over the antibody captured surface and the binding response was recorded. Heterodimeric CD3 protein was purified using the method described in Davis et al. (US2010/0331527).
as §1

[3] = target: T2, human PSMA expressed with an N-terminal hexahistidine tag (6h.hPSMA, R&D) (human, UniProt Q04609 44-750); test: SPR Biacore T-200, 37 C, antibody-capture (anti-human Fc), 6h.hPSMA as analyte
T2 construct: Bought soluble protein; also called soluble human PSMA; human PSMA protein
Procedure: In this example, anti-PSMA antibodies were assessed for their ability to bind to human PSMA. […] Measurements were conducted on a Biacore™ T-200 instrument (GE Healthcare).
Briefly, a CM5 Biacore™ sensor surface was derivatized via amine coupling with a monoclonal mouse anti-human Fc antibody (GE, # BR-1008-39) or monoclonal goat anti-mouse Fc antibody (GE, # BR-1008-38) to capture purified anti-PSMA antibodies. Binding studies were performed in HBSP++ buffer composed of 0.01M HEPES, 0.15M NaCl, 2 mM Ca²⁺, 2 mM Mg²⁺, 0.05% v/v Surfactant P20, pH7.4. Varying concentrations of human PSMA expressed with an N-terminal hexahistidine tag (6h.hPSMA, R&D) prepared in HBSP++ running buffer (ranging from 50 to 0.78 nM, 4-fold dilutions) were injected over the anti-PSMA antibody captured surface at a flow rate of 30 μL/minute. Antibody-reagent association was monitored for 2 minutes while dissociation in HBSP++ running buffer was monitored for 8 minutes.
as §1, with “by” for “by processing and”, “real-time sensorgrams” for “data”, “2.0c” for “2.0”, “(t½)” for “(t₁₁₂)”, “2/(60*kd).” for “2/(60*kd). NT=not tested; NB=no binding observed.”

T1 sequence (P07766 23-126 limits assumed, stated change not applied, chain 1 of 2): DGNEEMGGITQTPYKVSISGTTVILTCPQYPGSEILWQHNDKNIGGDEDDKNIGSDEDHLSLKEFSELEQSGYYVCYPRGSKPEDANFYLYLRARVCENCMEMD
T1 sequence (P04234 22-105 limits assumed, stated change not applied, chain 2 of 2): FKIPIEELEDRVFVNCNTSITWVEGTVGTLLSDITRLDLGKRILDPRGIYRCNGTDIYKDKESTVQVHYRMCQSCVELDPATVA
T2 sequence (Q04609 other isoform, or with tags, fused parts or gaps limits assumed): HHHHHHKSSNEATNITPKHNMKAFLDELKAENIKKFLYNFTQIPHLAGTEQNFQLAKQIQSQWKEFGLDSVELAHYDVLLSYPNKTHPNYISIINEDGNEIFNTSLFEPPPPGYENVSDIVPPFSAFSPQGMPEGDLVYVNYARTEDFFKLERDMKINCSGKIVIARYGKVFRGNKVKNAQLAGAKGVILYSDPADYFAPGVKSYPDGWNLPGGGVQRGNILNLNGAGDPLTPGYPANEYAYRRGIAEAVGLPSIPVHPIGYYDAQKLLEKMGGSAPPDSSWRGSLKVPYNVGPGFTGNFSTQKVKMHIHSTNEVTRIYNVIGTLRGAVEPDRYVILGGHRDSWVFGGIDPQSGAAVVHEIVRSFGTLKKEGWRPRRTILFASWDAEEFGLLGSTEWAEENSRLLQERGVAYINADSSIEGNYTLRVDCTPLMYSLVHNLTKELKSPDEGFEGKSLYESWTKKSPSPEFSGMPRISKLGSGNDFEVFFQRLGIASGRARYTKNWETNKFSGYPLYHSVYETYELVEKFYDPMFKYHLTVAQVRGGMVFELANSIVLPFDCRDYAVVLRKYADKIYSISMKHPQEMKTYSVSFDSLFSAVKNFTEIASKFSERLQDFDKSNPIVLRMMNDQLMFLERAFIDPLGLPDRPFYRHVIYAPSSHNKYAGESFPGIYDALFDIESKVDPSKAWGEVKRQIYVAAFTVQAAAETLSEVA

Binder | Kd [1] [nM] | T½ [1] [min] | koff [1] [s⁻¹] | kon [1] [M⁻¹ s⁻¹] | Kd [2] [nM] | T½ [2] [min] | koff [2] [s⁻¹] | kon [2] [M⁻¹ s⁻¹] | Kd [3] [nM] | koff [3] [s⁻¹] | kon [3] [M⁻¹ s⁻¹] | t1/2 [3] [min]
B1 | 0.279 | 120 | 9.61e-05 | 345000 | 11.3 | 73 | 0.000159 | 14100 | – | – | – | –
B2 | 0.565 | 49 | 0.000236 | 418000 | 27.2 | 33 | 0.000355 | 13000 | – | – | – | –
B3 | 1.27 | 57 | 0.000204 | 161000 | 24.2 | 43 | 0.000269 | 11100 | – | – | – | –
B4 | – | – | – | – | – | – | – | – | 0.227 | 6.06e-05 | 267000 | 191
B5 | – | – | – | – | – | – | – | – | 3.74 | 0.00063 | 168000 | 18.3
B6 | – | – | – | – | – | – | – | – | 0.163 | 4.1e-05 | 251000 | 282
B7 | – | – | – | – | – | – | – | – | 0.205 | 9.7e-05 | 473000 | 119
B8 | – | – | – | – | – | – | – | – | 0.855 | 0.00028 | 327000 | 41.3
B9 | – | – | – | – | – | – | – | – | 1.33 | 0.000608 | 457000 | 19
